Experimental data: publication PMC3534962

Legend:
[1] = co-immunoprecipitation with Flag-PFK1; details: glycan gained; control: WT Flag-PFK1 without OGT overexpression
[2] = native gel electrophoresis of immunopurified Flag-PFK1; details: glycan gained; control: Flag-PFK1 from untreated 293T cells
[3] = co-immunoprecipitation after OGT overexpression; details: glycan lost; control: WT Flag-PFK1
[4] = lactate production with and without OGT overexpression; details: glycan lost; control: WT PFK1 H1299 knock-in cells
colorimetric NADPH assay = details: glycan lost; control: WT PFK1 H1299 knock-in cells
[5] = GSH level under hypoxic conditions; details: glycan lost; control: WT PFK1 H1299 knock-in cells, hypoxia
[6] = NADPH level under hypoxic conditions; details: glycan lost; control: WT PFK1 H1299 knock-in cells, hypoxia
[7] = monochlorobimane fluorimetric GSH assay; details: glycan lost; control: WT PFK1 H1299 knock-in cells
[8] = glycolytic rate with and without OGT overexpression; details: glycan lost; control: WT PFK1 H1299 knock-in cells
[9] = untargeted flow-injection mass spectrometry metabolite profiling; details: glycan lost; control: WT PFK1 H1299 knock-in cells
[10] = [1,2-13C]-glucose labelling, LC-MS; details: glycan lost; control: WT PFK1 H1299 knock-in cells
[11] = 14CO2 release from [1-14C]- vs [6-14C]-glucose; details: glycan lost; control: WT PFK1 H1299 knock-in cells
[12] = proliferation with and without OGT overexpression; details: glycan lost; control: WT PFK1 H1299 knock-in cells, hypoxia

B1: phosphofructokinase 1 (PFK1): OGT overexpression (protein)
parent chain: MAAVDLEKLRASGAGKAIGVLTSGGDAQGMNAAVRAVTRMGIYVGAKVFLIYEGYEGLVEGGENIKQANWLSVSNIIQLGGTIIGSARCKAFTTREGRRAAAYNLVQHGITNLCVIGGDGSLTGANIFRSEWGSLLEELVAEGKISETTARTYSHLNIAGLVGSIDNDFCGTDMTIGTDSALHRIMEVIDAITTTAQSHQRTFVLEVMGRHCGYLALVSALASGADWLFIPEAPPEDGWENFMCERLGETRSRGSRLNIIIIAEGAIDRNGKPISSSYVKDLVVQRLGFDTRVTVLGHVQRGGTPSAFDRILSSKMGMEAVMALLEATPDTPACVVTLSGNQSVRLPLMECVQMTKEVQKAMDDKRFDEATQLRGGSFENNWNIYKLLAHQKPPKEKSNFSLAILNVGAPAAGMNAAVRSAVRTGISHGHTVYVVHDGFEGLAKGQVQEVGWHDVAGWLGRGGSMLGTKRTLPKGQLESIVENIRIYGIHALLVVGGFEAYEGVLQLVEARGRYEELCIVMCVIPATISNNVPGTDFSLGSDTAVNAAMESCDRIKQSASGTKRRVFIVETMGGYCGYLATVTGIAVGADAAYVFEDPFNIHDLKVNVEHMTEKMKTDIQRGLVLRNEKCHDYYTTEFLYNLYSSEGKGVFDCRTNVLGHLQQGGAPTPFDRNYGTKLGVKAMLWLSEKLREVYRKGRVFANAPDSACVIGLKKKAVAFSPVTELKKDTDFEHRMPREQWWLSLRLMLKMLAQYRISMAAYVSGELEHVTRRTLSMDKGF
oligomerisation [1]: decreases | oligomerisation [2]: decreases

B2: phosphofructokinase 1 (PFK1): S529A (protein)
parent chain: MAAVDLEKLRASGAGKAIGVLTSGGDAQGMNAAVRAVTRMGIYVGAKVFLIYEGYEGLVEGGENIKQANWLSVSNIIQLGGTIIGSARCKAFTTREGRRAAAYNLVQHGITNLCVIGGDGSLTGANIFRSEWGSLLEELVAEGKISETTARTYSHLNIAGLVGSIDNDFCGTDMTIGTDSALHRIMEVIDAITTTAQSHQRTFVLEVMGRHCGYLALVSALASGADWLFIPEAPPEDGWENFMCERLGETRSRGSRLNIIIIAEGAIDRNGKPISSSYVKDLVVQRLGFDTRVTVLGHVQRGGTPSAFDRILSSKMGMEAVMALLEATPDTPACVVTLSGNQSVRLPLMECVQMTKEVQKAMDDKRFDEATQLRGGSFENNWNIYKLLAHQKPPKEKSNFSLAILNVGAPAAGMNAAVRSAVRTGISHGHTVYVVHDGFEGLAKGQVQEVGWHDVAGWLGRGGSMLGTKRTLPKGQLESIVENIRIYGIHALLVVGGFEAYEGVLQLVEARGRYEELCIVMCVIPATISNNVPGTDFSLGSDTAVNAAMESCDRIKQSASGTKRRVFIVETMGGYCGYLATVTGIAVGADAAYVFEDPFNIHDLKVNVEHMTEKMKTDIQRGLVLRNEKCHDYYTTEFLYNLYSSEGKGVFDCRTNVLGHLQQGGAPTPFDRNYGTKLGVKAMLWLSEKLREVYRKGRVFANAPDSACVIGLKKKAVAFSPVTELKKDTDFEHRMPREQWWLSLRLMLKMLAQYRISMAAYVSGELEHVTRRTLSMDKGF
other: OGT-induced loss of subunit co-immunoprecipitation [3]: abolishes | other: OGT-induced decrease in lactate production, other: percent decrease [4]: abolishes | other: OGT-induced increase in NADPH, fold_change (colorimetric NADPH assay): abolishes | other: cellular GSH level [5]: decreases | other: cellular NADPH level [6]: decreases | other: OGT-induced increase in GSH, fold_change [7]: decreases | other: OGT-induced decrease in glycolytic rate, other: percent decrease [8]: abolishes | other: steady-state metabolite concentrations [9]: decreases | other: OGT-induced increase in PPP flux, fold_change [10]: abolishes | other: OGT-induced increase in PPP flux [11]: abolishes | other: OGT-induced increase in proliferation [12]: abolishes

B3: phosphofructokinase 1 (PFK1): PUGNAc (protein)
parent chain: MAAVDLEKLRASGAGKAIGVLTSGGDAQGMNAAVRAVTRMGIYVGAKVFLIYEGYEGLVEGGENIKQANWLSVSNIIQLGGTIIGSARCKAFTTREGRRAAAYNLVQHGITNLCVIGGDGSLTGANIFRSEWGSLLEELVAEGKISETTARTYSHLNIAGLVGSIDNDFCGTDMTIGTDSALHRIMEVIDAITTTAQSHQRTFVLEVMGRHCGYLALVSALASGADWLFIPEAPPEDGWENFMCERLGETRSRGSRLNIIIIAEGAIDRNGKPISSSYVKDLVVQRLGFDTRVTVLGHVQRGGTPSAFDRILSSKMGMEAVMALLEATPDTPACVVTLSGNQSVRLPLMECVQMTKEVQKAMDDKRFDEATQLRGGSFENNWNIYKLLAHQKPPKEKSNFSLAILNVGAPAAGMNAAVRSAVRTGISHGHTVYVVHDGFEGLAKGQVQEVGWHDVAGWLGRGGSMLGTKRTLPKGQLESIVENIRIYGIHALLVVGGFEAYEGVLQLVEARGRYEELCIVMCVIPATISNNVPGTDFSLGSDTAVNAAMESCDRIKQSASGTKRRVFIVETMGGYCGYLATVTGIAVGADAAYVFEDPFNIHDLKVNVEHMTEKMKTDIQRGLVLRNEKCHDYYTTEFLYNLYSSEGKGVFDCRTNVLGHLQQGGAPTPFDRNYGTKLGVKAMLWLSEKLREVYRKGRVFANAPDSACVIGLKKKAVAFSPVTELKKDTDFEHRMPREQWWLSLRLMLKMLAQYRISMAAYVSGELEHVTRRTLSMDKGF
oligomerisation [2]: decreases
